One data set deals with T1, usp/PPAR heterodimer (Drosophila melanogaster / Rattus …, UniProt P20153;P37230 P20153:1-508,P37230:1-468).
T1 sequence 1: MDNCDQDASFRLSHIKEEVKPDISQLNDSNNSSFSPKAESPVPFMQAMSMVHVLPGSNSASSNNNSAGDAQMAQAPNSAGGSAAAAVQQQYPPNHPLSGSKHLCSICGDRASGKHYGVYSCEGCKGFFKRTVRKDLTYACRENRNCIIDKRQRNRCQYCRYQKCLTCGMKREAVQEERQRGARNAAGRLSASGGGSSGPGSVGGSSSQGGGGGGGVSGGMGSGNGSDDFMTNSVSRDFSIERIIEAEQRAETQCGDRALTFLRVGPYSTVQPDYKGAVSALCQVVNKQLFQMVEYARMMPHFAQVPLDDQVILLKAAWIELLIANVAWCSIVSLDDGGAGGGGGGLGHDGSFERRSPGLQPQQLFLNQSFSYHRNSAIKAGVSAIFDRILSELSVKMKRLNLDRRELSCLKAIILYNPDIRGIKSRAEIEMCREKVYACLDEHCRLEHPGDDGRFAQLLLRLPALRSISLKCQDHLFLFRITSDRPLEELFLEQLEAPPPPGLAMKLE
T1 sequence 2: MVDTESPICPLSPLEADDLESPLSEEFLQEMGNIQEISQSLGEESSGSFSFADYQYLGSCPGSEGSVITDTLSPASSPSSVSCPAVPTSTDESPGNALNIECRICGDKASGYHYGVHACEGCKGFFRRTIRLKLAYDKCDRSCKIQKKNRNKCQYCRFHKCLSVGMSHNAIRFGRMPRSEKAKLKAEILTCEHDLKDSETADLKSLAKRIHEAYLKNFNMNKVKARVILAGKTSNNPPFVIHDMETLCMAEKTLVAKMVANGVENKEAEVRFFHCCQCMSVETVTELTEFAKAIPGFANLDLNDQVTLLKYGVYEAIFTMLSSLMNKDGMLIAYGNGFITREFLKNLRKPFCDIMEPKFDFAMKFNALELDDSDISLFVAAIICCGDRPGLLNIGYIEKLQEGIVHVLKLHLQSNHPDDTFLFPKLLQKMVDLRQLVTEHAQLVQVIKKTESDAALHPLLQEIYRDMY
As to the kind of experiment: EMSA; high affinity; usp antibody supershift. The conditions noted are these: label: 32P. The procedure: (§1) For gel mobility shift assay, proteins were incubated with binding buffer, which contained 100 mM KCl, 7.5% glycerol, 20 mM HEPES pH 7.5, 2 mM DTT and 0.1% NP-40, on ice for 20 minutes in the presence of 2 μg of nonspecific competitor poly dI-dC and other oligo competitors. Then approximately 1 ng of ^32P-dCTP probe, which was labelled to specific activity about 1-5×10^8 cpm/μg by fill-in reaction with Klenow fragments, was added to the reaction and incubated at room temperature for 20 minutes. Antiserum or preimmune serum was added 10 minutes after the probe was added. The reaction was then loaded into 5% non-denaturing polyacrylamide gel in 0.5×TBE running buffer [1×TBE comprises 0.089 M Tris borate, 0.089 M boric acid and 0.002 M EDTA]. After electrophoresis, the gel was dried for autoradiography.
(§2) Using in vitro translated usp protein, interaction of usp with three mammalian nuclear receptors (TRβ, VDR and PPAR) was tested in gel mobility shift assays with the appropriate response element for each of the three receptors as the probes.

The target of the next data set is T2, usp/VDR heterodimer (Drosophila melanogaster / Homo sapiens, UniProt P20153;P11473 P20153:1-508,P11473:1-427).
T2 sequence 1: T1 sequence 1
T2 sequence 2: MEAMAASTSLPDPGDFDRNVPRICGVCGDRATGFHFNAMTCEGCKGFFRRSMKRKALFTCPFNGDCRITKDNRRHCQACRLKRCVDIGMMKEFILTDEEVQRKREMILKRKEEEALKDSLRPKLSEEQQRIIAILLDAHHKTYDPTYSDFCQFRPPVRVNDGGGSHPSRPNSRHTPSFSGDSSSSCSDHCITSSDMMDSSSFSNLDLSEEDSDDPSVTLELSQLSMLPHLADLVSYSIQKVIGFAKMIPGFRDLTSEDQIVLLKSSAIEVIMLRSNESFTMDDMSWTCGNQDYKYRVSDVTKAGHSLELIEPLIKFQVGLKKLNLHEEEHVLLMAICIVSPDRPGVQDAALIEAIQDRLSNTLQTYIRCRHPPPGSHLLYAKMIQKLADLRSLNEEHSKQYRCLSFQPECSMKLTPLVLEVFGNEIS
As to the kind of experiment: EMSA; usp dependent; usp antibody supershift. The conditions noted are these: label: 32P. The procedure: as §1, §2

Two molecules from patent US7119077B1, “Multimeric forms of members of the steroid/thyroid superfamily of receptors with the ultraspiracle receptor” (The Salk Institute for Biological Studies, priority 1990, dated 2006) can be followed below.

B1: AOX-PPARE (DR1) (dsDNA)
DNA 1: AGGACAAAGGTCA
DNA 2: TGACCTTTGTCCT
Turning to B1, the binding result with usp/PPAR heterodimer is “binds”.

B2: SPP1-VDRE (DR3, printed SSP1) (dsDNA)
DNA 1: GGTTCACGAGGTTCA
DNA 2: TGAACCTCGTGAACC
For the molecule B2, in the data set with usp/VDR heterodimer, the binding result is reported as “binds”.
